{"source": "patent US20040043401A1", "about": "(SLOAN KETTERING INSTITUTE FOR CANCER RESEARCH, published 2004)", "binders": {"B1": {"name": "P28z fusion receptor (J591 scFv - human CD28 hinge, transmembrane and intracellular portions - intracellular domain of human TCR zeta) (receptor, not shown: a dimerising Fc or GST; small tags and cut ends)", "chain": "IEVMYPPPYLDNEKSNGTIIHVKGKHLCPSPLFPGPSKPFWVLVVVGGVLACYSLLVTVAFIIFWVRSKRSRLLHSDYMNMTPRRPGPTRKHYQPYAPPRDFAAYRSRVKFSRSADAPAYQQGQNQLYNELNLGRREEYDVLDKRRGRDPEMGGKPRRKNPQEGLYNELQKDKMAEAYSEIGMKGERRRGKGHDGLYQGLSTATKDTYDALHMQALPPR"}}, "target": "human prostate-specific membrane antigen (PSMA) (human, UniProt Q04609 1-750)", "sequence (Q04609 whole entry)": "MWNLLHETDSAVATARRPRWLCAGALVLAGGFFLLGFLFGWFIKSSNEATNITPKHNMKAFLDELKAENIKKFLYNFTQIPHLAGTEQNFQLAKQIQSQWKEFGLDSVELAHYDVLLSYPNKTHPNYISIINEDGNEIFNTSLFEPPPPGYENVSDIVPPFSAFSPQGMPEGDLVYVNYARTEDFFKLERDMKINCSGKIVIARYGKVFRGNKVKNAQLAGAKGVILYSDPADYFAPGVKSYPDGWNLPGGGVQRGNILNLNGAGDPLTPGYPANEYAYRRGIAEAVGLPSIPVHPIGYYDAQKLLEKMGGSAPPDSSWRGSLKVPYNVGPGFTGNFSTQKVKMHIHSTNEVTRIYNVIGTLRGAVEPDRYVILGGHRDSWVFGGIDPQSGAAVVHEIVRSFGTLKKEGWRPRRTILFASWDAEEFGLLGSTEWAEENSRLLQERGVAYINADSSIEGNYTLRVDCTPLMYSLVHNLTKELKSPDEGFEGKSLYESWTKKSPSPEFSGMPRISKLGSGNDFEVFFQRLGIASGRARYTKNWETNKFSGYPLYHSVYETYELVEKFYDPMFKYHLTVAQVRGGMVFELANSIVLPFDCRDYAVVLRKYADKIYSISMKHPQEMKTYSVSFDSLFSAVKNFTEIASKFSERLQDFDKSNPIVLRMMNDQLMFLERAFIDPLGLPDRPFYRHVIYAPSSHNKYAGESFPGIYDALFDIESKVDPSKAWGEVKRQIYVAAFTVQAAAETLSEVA", "assay": "cell-based or functional assay"}
{"binder": "B1", "values": [{"measurement": "expansion in total cell number after re-stimulation with PSMA, seven days", "value": 4, "unit": "fold"}, {"measurement": "expansion of transduced T cells on NIH3T3 cells expressing PSMA alone, seven days", "value": 8.6, "unit": "fold"}]}
